The values below come from FireProtDB (doi:10.1021/bi002812d).

Values joined by “and” are separate entries in the source; they are usually repeats but may differ in a detail not shown here. Equal values may be shown once.

The labels stand for the following.
B1: Cyclin-dependent kinases regulatory subunit, P08463 (parent)
chain: MSKSGVPRLLTASERERLEPFIDQIHYSPRYADDEYEYRHVMLPKAMLKAIPTDYFNPETGTLRILQEEEWRGLGITQSLGWEMYEVHVPEPHILLFKREKDYQMKFSQQRGG

In the data set the parent is B1. The conditions noted are these: Schizosaccharomyces pombe (strain 972 / ATCC 24843), pH 7.1, 25 °C, GdnHCl, Fluorescence, Tris-HCl, NaCl, reversible: yes, structure 1SCE, whole UniProt chain shown.

For P92V, under “transition: 2”, the “ddG of mutation (higher = less stable)” value is 0.18 kcal/mol and 0.08 kcal/mol; the denaturant m value is 3.85 kcal/mol/M and 3.55 kcal/mol/M; the “denaturant midpoint (higher = more stable)” value (shortened to “denaturant midpoint”) is 1.86 M and 2.05 M; the unfolding free energy is 7.16 kcal/mol and 7.28 kcal/mol.
For the variant P90V P92V, the denaturant m value was 1.88 kcal/mol/M (transition: 2+2); 3.42 kcal/mol/M and 3.31 kcal/mol/M (transition: 2); 1.7 kcal/mol/M and 3.39 kcal/mol/M (transition: 3). Besides, the “denaturant midpoint” value was 4.14 M (transition: 2+2); 2.04 M and 1.67 M (transition: 2); 0.74 M and 2.08 M (transition: 3). The unfolding free energy was 7.8 kcal/mol (transition: 2+2); 6.97 kcal/mol and 5.52 kcal/mol (transition: 2).
Regarding P90V, where the note is “transition: 2”, the “ddG of mutation (higher = less stable)” value is 0.63 kcal/mol and 0.62 kcal/mol; the denaturant m value is 3.42 kcal/mol/M and 3.55 kcal/mol/M; the “denaturant midpoint” value was 1.96 M and 1.9 M; the unfolding free energy was 6.71 kcal/mol and 6.74 kcal/mol.
